In the series the target is His6-RpoS (sigma S) (Salmonella enterica serovar Typhimurium 14028s) (UniProt D0ZVL4). The experiment in a line: EMSA. Conditions: LightShift chemiluminescent EMSA kit, 20 uL: 1 ng biotin-DNA, 2 uL binding buffer, 1 ug poly(dI.dC), 1 uL 50% glycerol, 1 uL 1 M KCl (about 50 mM added). On the technique in general: Mobility shift assays separate free from complexed probe on a gel.
His6-RpoS (sigma S) (Salmonella enterica serovar Typhimurium 14028s), sequence (D0ZVL4 whole entry): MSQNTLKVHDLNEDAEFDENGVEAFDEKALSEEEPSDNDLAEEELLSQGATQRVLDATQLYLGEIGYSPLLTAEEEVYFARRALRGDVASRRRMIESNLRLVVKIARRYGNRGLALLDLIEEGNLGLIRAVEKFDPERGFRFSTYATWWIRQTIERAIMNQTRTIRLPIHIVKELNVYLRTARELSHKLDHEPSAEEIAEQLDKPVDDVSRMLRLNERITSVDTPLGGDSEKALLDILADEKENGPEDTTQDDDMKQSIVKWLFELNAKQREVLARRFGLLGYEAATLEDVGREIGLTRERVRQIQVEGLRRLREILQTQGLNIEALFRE

“ACTCGTATGTTTATCATGCAACCTATAAATAAATGTTATATTCAATAACTAATATTACATCTCAAATTCTCTCAAGTATGTCATAACGCTGCAGCAAATAAAAGTCAGTCAGC (double strand) [waaZ promoter]”: the binding result is given as “binds”.

As for “ACTTCCCCGAGCTTAAAAATGACCCAAACGGGTGTACCGATCTTAGTCTGCTGGCTGGCGCTGTAGCAAAGTTTAATGTCATCGGTAACCGGCTGGATTTAGCGATCCCTCAAATCGCG (double strand) [sthC promoter]”, the binding result was “binds”.

Values taken from article doi:10.1101/2023.10.26.564249.
